Legend:
Conditions in all cases: label: none (ethidium bromide stain)
bacteriophage λN peptide = target: T1, bacteriophage λN peptide (bacteriophage lambda, UniProt P03045); experiment: EMSA; 50 mM Tris-HCl pH 8.0, 50 mM KCl, 30 °C 15 min; RNA refolded from 95 °C; 15% PAGE in Tris-borate-EDTA, ethidium bromide stain
T1 chain: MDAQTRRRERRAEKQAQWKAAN

HTLV-1 Rex peptide [1] = target: T2, HTLV-1 Rex peptide (HTLV-1, UniProt P0C206); experiment: EMSA; peptide in excess over RNA; ++; 50 mM Tris-HCl pH 8.0, 50 mM KCl, 30 °C 15 min; RNA refolded from 95 °C; 15% PAGE in Tris-borate-EDTA, ethidium bromide stain
T2 chain: MPKTRRRPRRSQRKRP

HTLV-1 Rex peptide [2] = target: T2, HTLV-1 Rex peptide; experiment: EMSA; 50 mM Tris-HCl pH 8.0, 50 mM KCl, 30 °C 15 min; RNA refolded from 95 °C; 15% PAGE in Tris-borate-EDTA, ethidium bromide stain

Binder | binding result (bacteriophage λN peptide) | apparent K (half saturation) (HTLV-1 Rex peptide [1]) [nM] | binding result (HTLV-1 Rex peptide [2])
UAGGCGACGGUACGCAAGUACUCUUGCGCCGGCCUA (structured_RNA) [HTLV-1 Rex aptamer] | no binding | ~300 | 
GGCUGGACUCGUACUUCGGUACUGGAGAAACAGCC (structured_RNA) [HIV-1 Rev aptamer] | no binding |  | no binding
